Measured values as given in publication PMC5691071, “Single molecule multiplexed nanopore protein screening in human serum using aptamer modified DNA carriers”.

Target: acetylcholinesterase (AChE) (UniProt O42275 24-633)
Assay: single-molecule nanopore; 100 pM lambda DNA carrier also carrying TBA probe and thrombin, 100 mM KCl; Nanopore: 100 mM KCl Tris-EDTA, pH 8, 45 min incubation; EMSA thrombin: 140 mM NaCl, 20 mM MgCl2, 20 mM PBS pH 7.4, 45 min; EMSA AChE: 2.7 mM KCl, 4 mM MgCl2, PBS pH 7.4, 1 h; temperature not stated
Settings: protein: commercial; chain copies: 4; free oligo in EMSA

Sequence of acetylcholinesterase (AChE) (O42275 24-633): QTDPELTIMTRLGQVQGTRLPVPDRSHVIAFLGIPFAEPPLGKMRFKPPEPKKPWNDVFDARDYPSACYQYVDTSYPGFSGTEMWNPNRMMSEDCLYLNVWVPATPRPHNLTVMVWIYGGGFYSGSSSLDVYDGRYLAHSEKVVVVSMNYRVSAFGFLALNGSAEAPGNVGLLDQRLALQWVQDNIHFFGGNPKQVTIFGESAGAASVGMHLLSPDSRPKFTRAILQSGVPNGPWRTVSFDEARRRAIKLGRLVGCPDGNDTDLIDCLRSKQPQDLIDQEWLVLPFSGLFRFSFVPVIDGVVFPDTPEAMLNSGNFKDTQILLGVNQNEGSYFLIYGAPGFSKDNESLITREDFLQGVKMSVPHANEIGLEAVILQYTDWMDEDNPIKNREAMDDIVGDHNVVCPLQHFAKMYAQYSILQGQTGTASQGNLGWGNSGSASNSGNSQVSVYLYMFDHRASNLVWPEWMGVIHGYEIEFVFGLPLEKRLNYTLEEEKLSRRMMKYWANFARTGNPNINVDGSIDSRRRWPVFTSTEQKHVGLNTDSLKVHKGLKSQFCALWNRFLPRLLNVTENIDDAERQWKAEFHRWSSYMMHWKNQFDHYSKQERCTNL

B1: Target ii AChE probe (75 nt) (mixed)
DNA: GGTTGACTGTAGCTCTGGCAGACGTAGTGTGAAGGTACCGGGCGGCGACCTAAGGTGTCGTGCGTAAGTTTTTAA
binding result: binds
